B1: Transcription factor GLABRA 3 (Arabidopsis thaliana (Mouse-ear cress)), Q9FN69 (parent)
chain: MATGQNRTTVPENLKKHLAVSVRNIQWSYGIFWSVSASQSGVLEWGDGYYNGDIKTRKTIQASEIKADQLGLRRSEQLSELYESLSVAESSSSGVAAGSQVTRRASAAALSPEDLADTEWYYLVCMSFVFNIGEGMPGRTFANGEPIWLCNAHTADSKVFSRSLLAKSAAVKTVVCFPFLGGVVEIGTTEHITEDMNVIQCVKTSFLEAPDPYATILPARSDYHIDNVLDPQQILGDEIYAPMFSTEPFPTASPSRTTNGFDQEHEQVADDHDSFMTERITGGASQVQSWQLMDDELSNCVHQSLNSSDCVSQTFVEGAAGRVAYGARKSRVQRLGQIQEQQRNVKTLSFDPRNDDVHYQSVISTIFKTNHQLILGPQFRNCDKQSSFTRWKKSSSSSSGTATVTAPSQGMLKKIIFDVPRVHQKEKLMLDSPEARDETGNHAVLEKKRREKLNERFMTLRKIIPSINKIDKVSILDDTIEYLQELERRVQELESCRESTDTETRGTMTMKRKKPCDAGERTSANCANNETGNGKKVSVNNVGEAEPADTGFTGLTDNLRIGSFGNEVVIELRCAWREGVLLEIMDVISDLHLDSHSVQSSTGDGLLCLTVNCKHKGSKIATPGMIKEALQRVAWIC
partner: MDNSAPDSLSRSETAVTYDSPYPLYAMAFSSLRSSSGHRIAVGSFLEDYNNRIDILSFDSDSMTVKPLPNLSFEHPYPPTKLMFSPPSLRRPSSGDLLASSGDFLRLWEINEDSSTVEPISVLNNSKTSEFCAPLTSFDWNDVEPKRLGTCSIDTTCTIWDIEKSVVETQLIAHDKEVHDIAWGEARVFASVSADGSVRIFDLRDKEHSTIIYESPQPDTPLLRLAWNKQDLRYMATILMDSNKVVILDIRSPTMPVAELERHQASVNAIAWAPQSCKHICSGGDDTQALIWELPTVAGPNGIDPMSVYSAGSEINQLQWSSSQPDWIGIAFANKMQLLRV
B2: Transcription factor GLABRA 3 (Arabidopsis thaliana (Mouse-ear cress)), Q9FN69 (parent)
chain: B1 chain
partner: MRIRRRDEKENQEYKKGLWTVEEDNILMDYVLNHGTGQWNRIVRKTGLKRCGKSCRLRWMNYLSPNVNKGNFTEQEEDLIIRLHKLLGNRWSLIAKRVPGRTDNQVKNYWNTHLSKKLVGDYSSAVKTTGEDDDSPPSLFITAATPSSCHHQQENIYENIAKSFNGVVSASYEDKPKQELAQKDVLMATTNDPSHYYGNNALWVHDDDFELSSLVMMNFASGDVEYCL

The first test covers variants of B1. Particulars: with ttg1_arath TTG1, Q9XGN1.
Regarding L78F, the “effect of a mutation on the interaction” value is on record as “decreasing interaction”.

In the next test the parent is B2. Particulars: with gl1_arath GL1, P27900.
Regarding L78F, the “effect of a mutation on the interaction” value is listed as “decreasing interaction”.

The values above are taken from IntAct's records for PubMed 14561633.
